Assay results published in patent US20230140293A1.

Key:
Experiment in all cases: cell-based or functional assay
[1] = molecular target: HIV-1 Env 426c, Env-pseudotyped virus produced in 293S GnTI- cells (Man5-enriched) (HIV-1 clade C strain 426c)
[2] = molecular target: HIV-1 Env 426c.DM (N460D.N463D), Env-pseudotyped virus produced in 293S GnTI- cells (Man5-enriched) (HIV-1 clade C strain 426c)
[3] = molecular target: HIV-1 Env 426c.SM (N276D), Env-pseudotyped virus produced in 293S GnTI- cells (Man5-enriched) (HIV-1 clade C strain 426c)
[4] = molecular target: HIV-1 Env 426c.TM (N276D.N460D.N463D), Env-pseudotyped virus produced in 293S GnTI- cells (Man5-enriched) (HIV-1 clade C strain 426c)
[5] = molecular target: HIV-1 Env 426c.TM4 (S278R.G471S.N460D.N463D), Env-pseudotyped virus produced in 293S GnTI- cells (Man5-enriched) (HIV-1 clade C strain 426c)
[6] = molecular target: HIV-1 Env 426c.TM4 (S278R.G471S.N460D.N463D), Env-pseudotyped virus produced in 293T cells (HIV-1 clade C strain 426c)
[7] = molecular target: CH0505.w4.3 Env, Env-pseudotyped virus produced in 293T cells (HIV-1)
[8] = molecular target: CH0505TF Env, Env-pseudotyped virus produced in 293S GnTI- cells (Man5-enriched) (HIV-1)
[9] = molecular target: CH0505TF Env, Env-pseudotyped virus produced in 293T cells (HIV-1)
[10] = molecular target: CH0505TF.G458Y Env, Env-pseudotyped virus produced in 293S GnTI- cells (Man5-enriched) (HIV-1)
[11] = molecular target: CH0505TF.G458Y Env, Env-pseudotyped virus produced in 293T cells (HIV-1)
[12] = molecular target: CH0505TF.gly3.197 Env, Env-pseudotyped virus produced in 293S GnTI- cells (Man5-enriched) (HIV-1)
[13] = molecular target: CH0505TF.gly3.197 Env, Env-pseudotyped virus produced in 293T cells (HIV-1)
[14] = molecular target: CH0505TF.gly3.276 Env, Env-pseudotyped virus produced in 293S GnTI- cells (Man5-enriched) (HIV-1)
[15] = molecular target: CH0505TF.gly3.276 Env, Env-pseudotyped virus produced in 293T cells (HIV-1)
[16] = molecular target: CH0505TF.gly3.461 Env, Env-pseudotyped virus produced in 293S GnTI- cells (Man5-enriched) (HIV-1)
[17] = molecular target: CH0505TF.gly3.461 Env, Env-pseudotyped virus produced in 293T cells (HIV-1)
[18] = molecular target: CH0505TF.gly4 Env, Env-pseudotyped virus produced in 293S GnTI- cells (Man5-enriched) (HIV-1)
[19] = molecular target: CH0505TF.gly4 Env, Env-pseudotyped virus produced in 293T cells (HIV-1)
[20] = molecular target: HIV-1 Env 426c, Env-pseudotyped virus produced in 293T cells (HIV-1 clade C strain 426c)
[21] = molecular target: HIV-1 Env 426c.DM (N460D.N463D), Env-pseudotyped virus produced in 293T cells (HIV-1 clade C strain 426c)
[22] = molecular target: HIV-1 Env 426c.SM (N276D), Env-pseudotyped virus produced in 293T cells (HIV-1 clade C strain 426c)
[23] = molecular target: HIV-1 Env 426c.TM (N276D.N460D.N463D), Env-pseudotyped virus produced in 293T cells (HIV-1 clade C strain 426c)
[24] = molecular target: HIV-1 426c.DM (N460D/N463D) Env on Env-pseudotyped virus produced in 293T cells (HIV-1)
[25] = molecular target: HIV-1 426c.DM (N460D/N463D) Env on Env-pseudotyped virus produced in 293s/GnTI-/- cells (Man5-enrichment) (HIV-1)
[26] = molecular target: HIV-1 426c.SM (N276D) Env on Env-pseudotyped virus produced in 293T cells (HIV-1)
[27] = molecular target: HIV-1 426c.SM (N276D) Env on Env-pseudotyped virus produced in 293s/GnTI-/- cells (Man5-enrichment) (HIV-1)
[28] = molecular target: HIV-1 426c.TM (N276D/N460D/N463D) Env on Env-pseudotyped virus produced in 293T cells (HIV-1)
[29] = molecular target: HIV-1 426c.TM (N276D/N460D/N463D) Env on Env-pseudotyped virus produced in 293s/GnTI-/- cells (Man5-enrichment) (HIV-1)
[30] = molecular target: HIV-1 clade C strain 426c Env on Env-pseudotyped virus produced in 293T cells (HIV-1)
[31] = molecular target: HIV-1 clade C strain 426c Env on Env-pseudotyped virus produced in 293s/GnTI-/- cells (Man5-enrichment) (HIV-1)

Substance	IC50 (µg/ml) in TZM-bl [1]	IC50 (µg/ml) in TZM-bl [2]	IC50 (µg/ml) in TZM-bl [3]	IC50 (µg/ml) in TZM-bl [4]	IC50 (µg/ml) in TZM-bl [5]	IC50 (µg/ml) in TZM-bl [6]	also measured
VRC07 (antibody)	0.07 µg/mL	0.05 µg/mL	0.02 µg/mL	0.009 µg/mL	< 0.002 µg/mL	< 0.002 µg/mL	–
VRC018 (antibody)	0.06 µg/mL	0.02 µg/mL	0.01 µg/mL	0.006 µg/mL	< 0.002 µg/mL	0.005 µg/mL	–
VRC20 (VRC-PG20) (antibody)	0.015 µg/mL	0.007 µg/mL	0.004 µg/mL	0.005 µg/mL	0.008 µg/mL	< 0.002 µg/mL	–
VRC23 (antibody)	0.19 µg/mL	0.06 µg/mL	0.1 µg/mL	3.1 µg/mL	< 0.002 µg/mL	0.082 µg/mL	–
VRC34.01 (antibody)	0.05 µg/mL	0.04 µg/mL	0.07 µg/mL	0.07 µg/mL	0.07 µg/mL	0.13 µg/mL	IC50 (µg/ml) in TZM-bl [7]: > 25 µg/mL; IC50 (µg/ml) in TZM-bl [8]: 0.1 µg/mL; IC50 (µg/ml) in TZM-bl [9]: 0.55 µg/mL; IC50 (µg/ml) in TZM-bl [10]: 0.03 µg/mL; IC50 (µg/ml) in TZM-bl [11]: 0.21 µg/mL; IC50 (µg/ml) in TZM-bl [12]: 0.17 µg/mL; IC50 (µg/ml) in TZM-bl [13]: 2.1 µg/mL; IC50 (µg/ml) in TZM-bl [14]: 0.14 µg/mL; IC50 (µg/ml) in TZM-bl [15]: 0.62 µg/mL; IC50 (µg/ml) in TZM-bl [16]: 0.17 µg/mL; IC50 (µg/ml) in TZM-bl [17]: 0.84 µg/mL; IC50 (µg/ml) in TZM-bl [18]: 0.14 µg/mL; IC50 (µg/ml) in TZM-bl [19]: 0.94 µg/mL; IC50 (µg/ml) in TZM-bl [20]: 0.08 µg/mL; IC50 (µg/ml) in TZM-bl [21]: 0.09 µg/mL; IC50 (µg/ml) in TZM-bl [22]: 0.06 µg/mL; IC50 (µg/ml) in TZM-bl [23]: 0.08 µg/mL
VRC34.1 (antibody)	–	–	–	–	–	–	ID50/IC50 in TZM-bl [24]: 0.09 µg/mL; ID50/IC50 in TZM-bl [25]: 0.04 µg/mL; ID50/IC50 in TZM-bl [26]: 0.06 µg/mL; ID50/IC50 in TZM-bl [27]: 0.07 µg/mL; ID50/IC50 in TZM-bl [28]: 0.08 µg/mL; ID50/IC50 in TZM-bl [29]: 0.07 µg/mL; ID50/IC50 in TZM-bl [30]: 0.08 µg/mL; ID50/IC50 in TZM-bl [31]: 0.05 µg/mL
